Data published in patent US12686704B2, “Procoagulant peptides and use thereof” (RAMBAM MED-TECH LTD., priority 2021, dated 2026).
Where no end group is shown, it is not given here.

What was measured:
[1] = biological target: lipidated TF, factor VIIa, factor X (Homo sapiens, UniProt P13726); experiment: Factor X activation assay of purified proteins (chromogenic substrate); format: biochemical; conditions: peptides at 5 μg/ml and 10 μg/ml; compared to control; FIG. 1A
Procedure: FIGS. 1A-1C include vertical bar graphs and thromboelastography (TEG) curves, showing that peptide 16 and peptide 16AC increase coagulation. Peptide 16 and 16AC were studied in an assay of purified proteins that included lipidated TF (4 nM), factor VIIa (40 nM), factor X (1.4 μM) and assay buffer. Factor X activated form (Xa) level was studied using a chromogenic substrate (1 mM). […] Bovine factor Xa diluted in the assay buffer was used to generate a standard curve. Without addition of TF (two right columns), no factor Xa was generated. […] (1B) A citrated pooled normal human blood sample (n=3) was left for 4 hours at room temperature in order to expose TF in bloods cells. Following this period, the peptides 16 and 16AC were added (5 μg/ml) along with calcium. […] Representative TEG curves are shown. (1C) The study presented in FIG. 1B was repeated 3 times with different pooled plasma. […] Peptide 16 (non-modified); peptide 16 comprising a C-terminal amid group (16A); peptide 16 comprising an N-terminal acetyl group (16C); and peptide 16 comprising a C-terminal amid group and an N-terminal acetyl group (16AC). In 1B: for control—SP min=11.2; R min=12.8; K min=3.8, Angle deg=52.0; and MA mm=47.9, for Peptide 16—SP min=5.2; R min=6.4; K min=2.8, Angle deg=63.3; and MA mm=50.4, and for Peptide 16AC—SP min=4.7; R min=5.6; K min=2.5, Angle deg=63.1; and MA mm=53.8.
Peptides 16, 16C, 16A and 16AC were studied in an assay of purified proteins that included lipidated TF (0.004 μM), factor VIIa (0.04 μM), factor X (1.4 μM) and assay buffer. Factor X activated form (Xa) level was studied using a chromogenic substrate (1 mM). […] Bovine factor Xa diluted in the assay buffer was used to generate a standard curve. Without addition of TF (two right columns), no factor Xa was generated.

[2] = system: Hemophilic mice (VIII-KO mice); experiment: Mouse-tail bleeding time model in hemophilic mice; format: in vivo; conditions: subcutaneous 150-375 μg/kg; FIG. 3D
Procedure: FIGS. 3A-3D include vertical bar graphs showing that modified heparanase procoagulant peptides of the invention decrease bleeding in hemophilic mice. Hemophilic mice (VIII-KO mice; C57BL/6 background, strain name B6;129S4-F8tm1Kaz/J) were studied. (3A) Peptides 16 or 16AC were injected subcutaneously at the flank in doses 150, 225, 300, 375 μg/kg. A mouse-tail bleeding time model was performed. The peptides were dissolved in phosphate-buffered saline (PBS). Control (0) group was injected with the vehicle phosphate buffered saline (PBS). (3D) is identical to (3A) with the exception that peptide 16 C […] and peptide 16A […] were also administered in the disclosed doses. In a similar study, the peptides were topically applied on the tail immediately following the incision of the tail at a rate of a drop every 5 seconds (3B). […] Mann-Whitney U test was used. Results represent mean±SD. *p<0.05.
Hemophilic mice (VIII-KO mice; C57BL/6 background, strain name B6;129S4-F8tm1Kaz/J) were studied. Peptides 16 or 16AC were injected sub-cutis at the flank in doses 150, 225, 300, 375 μg/kg. A mouse-tail bleeding time model was performed. The peptides were dissolved in phosphate-buffered saline (PBS). Control (0) group was injected with the vehicle phosphate buffered saline (PBS) (FIGS. 3A and 3D). In a similar study, the peptides were topically applied on the tail immediately following the incision of the tail at a rate of a drop every 5 seconds (FIG. 3B).

Sequence of lipidated TF, factor VIIa, factor X (P13726 33-295): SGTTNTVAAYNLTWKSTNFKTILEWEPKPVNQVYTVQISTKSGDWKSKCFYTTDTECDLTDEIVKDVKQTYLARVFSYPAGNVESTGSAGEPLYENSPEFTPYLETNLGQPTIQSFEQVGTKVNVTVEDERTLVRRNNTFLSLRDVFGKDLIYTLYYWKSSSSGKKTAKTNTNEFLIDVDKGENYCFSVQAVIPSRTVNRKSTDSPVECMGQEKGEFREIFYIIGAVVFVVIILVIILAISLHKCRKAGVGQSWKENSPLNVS
Sequence of lipidated TF, factor VIIa, factor X (P08709 61-212 partner limits assumed): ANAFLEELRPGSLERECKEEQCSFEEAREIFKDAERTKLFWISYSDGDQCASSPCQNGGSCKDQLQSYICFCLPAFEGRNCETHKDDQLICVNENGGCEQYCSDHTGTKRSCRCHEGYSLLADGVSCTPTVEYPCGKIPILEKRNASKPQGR
Sequence of lipidated TF, factor VIIa, factor X (P08709 213-466 partner limits assumed): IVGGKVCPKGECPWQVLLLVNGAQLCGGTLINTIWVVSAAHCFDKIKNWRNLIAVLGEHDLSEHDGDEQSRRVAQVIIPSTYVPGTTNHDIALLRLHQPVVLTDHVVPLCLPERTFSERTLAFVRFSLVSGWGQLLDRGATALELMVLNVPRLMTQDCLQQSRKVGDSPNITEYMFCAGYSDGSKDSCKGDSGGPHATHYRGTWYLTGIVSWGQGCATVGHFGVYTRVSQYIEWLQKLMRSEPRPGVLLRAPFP

| Substance | activation of factor X (factor Xa level) [1] | bleeding time reduction, comparison between peptides [2] |
| --- | --- | --- |
| acetyl-GSKRRKLRVYLHCT (Ac-GSKRRKLRVYLHCT) [Peptide 16C, peptide 16 comprising an N-terminal acetyl group] | significantly increased activation of factor X compared to control |  |
| GSKRRKLRVYLHCT-amid (GSKRRKLRVYLHCT-NH2) [Peptide 16A, peptide 16 comprising a C-terminal amid group] | significantly increased activation of factor X compared to control | significant better effect to reduce the bleeding time compared to peptide 16 and peptide 16C |
